± gives the half width of the 95% confidence interval.
How the values were obtained:
[1] = folding stability dG unfold from trypsin proteolysis; higher = more stable
Summary of the method: (§1)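 Sequencing followed digestion of designed mini-proteins with trypsin and chymotrypsin, each at 11 concentrations in threefold dilutions together with a no-protease condition. The mini-proteins were under 80 residues, had no cysteine, sat in a PA-tagged cDNA display construct, and were kept only if AlphaFold2 dimer inter-PAE was above 15. From the counts, Bayesian fitting gave K50, and unfolding free energy was derived against a sequence-predicted unfolded-state K50 and a shared folded-state K50, per protease or combined.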

[2] = folding stability dG unfold (combined trypsin and chymotrypsin); higher = more stable
Summary of the method: as §1

[3] = folding stability dG unfold from chymotrypsin proteolysis; higher = more stable
Summary of the method: as §1

| Sequence | folding stability dG unfold [1] | folding stability dG unfold [2] | folding stability dG unfold [3] |
| --- | --- | --- | --- |
| SAGGSAGGSAGPTVASVEVLEYDPETGYLTVRIYIPDNGEWVDVKAPVGTAEEIVKAAEKSAGGSAGGSAGG [r17_111_TrMRF] | 0.463 ± 0.077 kcal/mol | 1.16 ± 0.14 kcal/mol | 1.49 ± 0.048 kcal/mol |
| SAGGSAGGSAGPVKLTLEVPEEEAEELAEALREAGYEVEIERDEETKRLRVTITVDPEALSAGGSAGGSAGG [r11_1043_TrROS_Hall] | 1.78 ± 0.095 kcal/mol | 2.01 ± 0.12 kcal/mol | 2.2 ± 0.056 kcal/mol |
| SAGGSAGGSAGPVKTVEVEIPGMSEEELLALLPPGVKRVEIEREEVEPGRVRLRIKVYEESAGGSAGGSAGG [r11_1002_TrROS_Hall] | 0.307 ± 0.062 kcal/mol | 0.977 ± 0.059 kcal/mol | 1.3 ± 0.051 kcal/mol |
| SAGGSAGGSAGPVTITIKVPKEDEEEIEALARELAAALPPPEGAKVTVERNEDGTITITLSAGGSAGGSAGG [r17_324_TrROS_Hall] | 1.56 ± 0.15 kcal/mol | 1.62 ± 0.12 kcal/mol | 1.6 ± 0.06 kcal/mol |
| SAGGSAGGSAGPVVVEVDGKLVIFNPEDGTVTVFEFDKDGKLVEEKEFTVPPEVTLVEEDSAGGSAGGSAGG [r17_385_TrROS_Hall] | 1.42 ± 0.11 kcal/mol | 1.27 ± 0.13 kcal/mol | 1.06 ± 0.039 kcal/mol |
| SAGGSAGGSAGRRLVLEFDDESLAVPAAEFLERVLGLELVSIERVPDGERERVLVVLDFPSAGGSAGGSAGG [r11_232_TrMRF] | 1.78 ± 0.036 kcal/mol | 2.21 ± 0.09 kcal/mol | 2.45 ± 0.05 kcal/mol |
| SAGGSAGGSAGSEIAEAIKKALEEAGVKEVKIEKVGPEPNVFRITFENGETIEITLPEDLSAGGSAGGSAGG [r11_765_TrROS_Hall] | 2.28 ± 0.15 kcal/mol | 2.21 ± 0.1 kcal/mol | 2.19 ± 0.037 kcal/mol |
| SAGGSAGGSAGSGTMFDFGSASVETLEEDPNGRVLVKVTLPDSEYLLEIVKGELVKIEPRSAGGSAGGSAGG [r17_396_JUSTAS] | -0.274 ± 0.28 kcal/mol | 0.569 ± 0.12 kcal/mol | 0.858 ± 0.059 kcal/mol |
| SAGGSAGGSAGSIGFDSLEEAEKAIEEARRNNVPLTIELRLPDGSTLRIPVDLEIPEDDPSAGGSAGGSAGG [r17_462_TrMRF] | 1.7 ± 0.056 kcal/mol | 1.46 ± 0.12 kcal/mol | 1.19 ± 0.037 kcal/mol |
| SAGGSAGGSAGSLELEFEFPKDTPLDKIIEELKKLIPEKDPKIEILKVEEKEGGLWIKARVSSAGGSAGGSA [r18_360_TrMRF] | 3.55 ± 0.085 kcal/mol | 3.26 ± 0.05 kcal/mol | 3.11 ± 0.042 kcal/mol |
| SAGGSAGGSAGSLLTETSESVINDTKITHVLEIDPSSGALRLILETKHPDPGIVTVELLPSAGGSAGGSAGG [r17_242_JUSTAS] | 0.943 ± 0.023 kcal/mol | 0.885 ± 0.072 kcal/mol | 0.857 ± 0.061 kcal/mol |
| SAGGSAGGSAGSMEPVKTEELESGEVRTVSLLPDGTIKEELIKIEGEGETVETKVVPLEESAGGSAGGSAGG [r11_699_JUSTAS] | 0.745 ± 0.065 kcal/mol | 1.48 ± 0.2 kcal/mol | 1.68 ± 0.1 kcal/mol |
| SAGGSAGGSAGSMIEEAVEAAKASGDPDVTVDLETPEGRVTVTVTVDPATGTVTVTTSPESAGGSAGGSAGG [r17_475_JUSTAS] | 1.21 ± 0.033 kcal/mol | 1.86 ± 0.091 kcal/mol | 2.21 ± 0.077 kcal/mol |
| SAGGSAGGSAGSMLLSLSIASVETTETTEIDPETGEKRKVTTTTITIPGTGQTITLTETVESAGGSAGGSAG [r3_424_JUSTAS] | 1.83 ± 0.058 kcal/mol | 1.28 ± 0.065 kcal/mol | 0.532 ± 0.07 kcal/mol |

Source: the supplement of paper PMC12764529
